Legend:
[1] = molecular target: T1, TfR1 (human, Sino Biological Inc.) (human, UniProt P02786 89-760); assay: ELISA value converted by purity of target protein
T1 construct: Bought protein; the catalogue number printed for it (11020-MM02) is the same as that printed for the anti-TfR1 primary antibody, so the construct cannot be told; also called TfFR1; receptor TfR1

[2] = molecular target: T1, TfR1 (human, Sino Biological Inc.); assay: ELISA, protein coated at 20 ug/mL, 2 ug/mL TfR1, anti-TfR1 detection
[3] = molecular target: T2, human Transferrin Receptor 1 (TfR1) on cells (human, UniProt P02786 1-760); assay: flow cytometry on hCMEC/D3 cells according to Example 1b
T2 construct: whole, on cells; Endogenous receptor on human cell lines; also called receptor TfR1 on hCMEC/D3 cells; TfR1 on U87-MG cells
T2 sequence (P02786 whole entry): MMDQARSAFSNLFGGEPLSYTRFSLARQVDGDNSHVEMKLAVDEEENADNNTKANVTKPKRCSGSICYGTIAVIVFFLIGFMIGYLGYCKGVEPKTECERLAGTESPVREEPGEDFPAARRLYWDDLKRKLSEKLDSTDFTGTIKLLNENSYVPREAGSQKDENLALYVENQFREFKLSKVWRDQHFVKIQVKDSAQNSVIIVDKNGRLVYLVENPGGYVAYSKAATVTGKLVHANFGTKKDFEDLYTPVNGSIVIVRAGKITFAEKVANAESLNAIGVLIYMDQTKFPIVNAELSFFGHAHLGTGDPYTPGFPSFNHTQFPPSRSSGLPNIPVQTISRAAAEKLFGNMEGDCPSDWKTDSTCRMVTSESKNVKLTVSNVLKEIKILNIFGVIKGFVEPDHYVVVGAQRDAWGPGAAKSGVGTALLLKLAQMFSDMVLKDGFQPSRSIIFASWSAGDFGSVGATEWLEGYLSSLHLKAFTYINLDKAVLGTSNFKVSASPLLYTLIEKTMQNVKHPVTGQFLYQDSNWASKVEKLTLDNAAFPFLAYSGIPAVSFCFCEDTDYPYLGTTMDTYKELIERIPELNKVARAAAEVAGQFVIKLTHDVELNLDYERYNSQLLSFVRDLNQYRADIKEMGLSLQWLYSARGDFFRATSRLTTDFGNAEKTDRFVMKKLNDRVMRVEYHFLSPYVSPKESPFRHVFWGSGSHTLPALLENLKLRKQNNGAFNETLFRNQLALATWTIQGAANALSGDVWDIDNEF

T1 sequence (P02786 89-760 limits assumed): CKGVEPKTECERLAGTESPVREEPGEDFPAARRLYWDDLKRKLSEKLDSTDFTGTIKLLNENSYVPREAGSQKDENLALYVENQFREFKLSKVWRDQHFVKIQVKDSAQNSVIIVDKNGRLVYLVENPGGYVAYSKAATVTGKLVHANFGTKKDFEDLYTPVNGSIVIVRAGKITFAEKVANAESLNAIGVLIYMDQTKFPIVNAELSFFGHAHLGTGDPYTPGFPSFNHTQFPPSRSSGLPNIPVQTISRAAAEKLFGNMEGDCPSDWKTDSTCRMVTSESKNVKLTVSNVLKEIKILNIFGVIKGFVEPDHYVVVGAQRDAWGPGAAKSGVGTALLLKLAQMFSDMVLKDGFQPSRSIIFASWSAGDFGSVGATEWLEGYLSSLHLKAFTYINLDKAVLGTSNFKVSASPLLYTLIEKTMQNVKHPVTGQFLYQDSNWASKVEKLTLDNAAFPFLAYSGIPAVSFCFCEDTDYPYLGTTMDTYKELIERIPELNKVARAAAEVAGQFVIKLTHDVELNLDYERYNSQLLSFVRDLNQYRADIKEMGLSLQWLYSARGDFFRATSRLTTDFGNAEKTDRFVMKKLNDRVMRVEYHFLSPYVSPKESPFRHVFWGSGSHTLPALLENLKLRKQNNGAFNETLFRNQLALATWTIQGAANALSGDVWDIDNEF

| Converted ELISA value [1] | ELISA value [2] [OD630] | binding result [3] | Binder |
| --- | --- | --- | --- |
| 1.52 | 1.17 | – | N-loop (designed binder, expressed in E. coli from PET22b; Purity of target protein 77.1%; also called N-loop modified protein) MSSQIRQNYHQDSEAAVNRQINLYLQASYTYLSLGFYFDRDDVALEGVSHFFRELAEEKREGYERLLKMQNQRGGRIFLQDIKKPDCDEWGKTPDAMKAAMALEKKLNQALLDLHKLATDKNDPHLCDFLETHFLDEEVKLIKKMGDHLTNLHRLGGPEAGLGEYLFERLTLKHD |
| 1.3 | 0.88 | – | N terminal (designed binder) MSSQIRQNYHQDSEAAVNRQINLYLQASYTYLSLGFYFDRDDVALEGVSHFFRELAEEKREGYERLLKMQNQRGGRIFLQDIKKPAEDEWGKTPDAMKAAMALEKKLNQALLDLHKLATDKNDPHLCDFLETHFLDEEVKLIKKMGDHLTNLHRLGGPEAGLGEYLFERLTLKHD |
| 0.71 | 0.31 | – | C-loop (designed binder) MSSQIRQNYSTDVEAAVNSLVNLYLQASYTYLSLGFYFDRDDVALEGVSHFFRELAEEKREGYERLLKMQNQRGGRALFQDIKKPDCDEWESGLNAMECALHLEKKLNQALLDLHALGSARTDPHLCDFLETHFLDEEVKLIKKMGDHLTNLRKMGAPEAGLGEYLFERLTLKHD |
| 0.17 | 0.1 | – | C terminal (designed binder) MSSQIRQNYSTDVEAAVNSLVNLYLQASYTYLSLGFYFDRDDVALEGVSHFFRELAEEKREGYERLLKMQNQRGGRALFQDIKKPAEDEWESGLNAMECALHLEKKLNQALLDLHALGSARTDPHLCDFLETHFLDEEVKLIKKMGDHLTNLRKMGAPEAGLGEYLFERLTLKHD |
| 2.02 | 1.23 | – | NC-loop (designed binder) MSSQIRQNYHQDSEAAVNRQINLYLQASYTYLSLGFYFDRDDVALEGVSHFFRELAEEKREGYERLLKMQNQRGGRIFLQDIKKPDCDEWESGLNAMECALHLEKKLNQALLDLHKLATDKNDPHLCDFLETHFLDEEVKLIKKMGDHLTNLRKMGAPEAGLGEYLFERLTLKHD |
| 1.14 | 1.03 | – | NC fusion (designed binder) MSSQIRQNYHQDSEAAVNRQINLYLQASYTYLSLGFYFDRDDVALEGVSHFFRELAEEKREGYERLLKMQNQRGGRIFLQDIKKPAEDEWESGLNAMECALHLEKKLNQALLDLHKLATDKNDPHLCDFLETHFLDEEVKLIKKMGDHLTNLRKMGAPEAGLGEYLFERLTLKHD |
| – | – | binds | chimeric human H-ferritin (designed binder, FITC-labelled in the cell assays; also called chimeric human H-ferritins) MTSQVRQNYHQDSEAAINRQINLELYASYVYLSMSYYFDRDDVALEGVSHFFRELAEEKREGYERLLKMQNQRGGRIFLQDIKKPDCDDWESGLNAMECALHLEKNVNQSLLELHKLATDKNDPHLCDFLETHFLDEEVKLIKKMGDHVTNLRKMGAPESGLAEYLFERLTLKHD |
